Laboratory results: paper PMC8050864

What was measured:
[1] = biological target: FL PFV intasome (tetramer of full-length prototype foamy virus integrase bound to two viral DNA ends) (prototype foamy virus); assay: pull-down
[2] = biological target: PFV IN(ΔCTD) intasome: full-length PFV IN(K120E) at the inner protomers, PFV IN(D273K, ΔCTD) at the outer protomers (prototype foamy virus); assay: pull-down

Which percent of the lane's Coomassie signal in the TL H4 band on the beads [1] does the source give for “601 nucleosome treated with trypsin to remove the histone tails (from UniProt P04908 1-130; O60814 1-126; P68431 1-136; P62805 1-103) (complex)” here?
The percent of the lane's Coomassie signal in the TL H4 band on the beads was 11.2%.

And the percent of the lane's Coomassie signal in the TL H4 band on the beads [2]?
Its percent of the lane's Coomassie signal in the TL H4 band on the beads is 2.5%.
